In IntAct's records for PubMed 31031754:

B1: Phosphatidylinositol 4,5-bisphosphate 3-kinase catalytic subunit delta isoform (Homo sapiens), O00329 (parent)
chain: MPPGVDCPMEFWTKEENQSVVVDFLLPTGVYLNFPVSRNANLSTIKQLLWHRAQYEPLFHMLSGPEAYVFTCINQTAEQQELEDEQRRLCDVQPFLPVLRLVAREGDRVKKLINSQISLLIGKGLHEFDSLCDPEVNDFRAKMCQFCEEAAARRQQLGWEAWLQYSFPLQLEPSAQTWGPGTLRLPNRALLVNVKFEGSEESFTFQVSTKDVPLALMACALRKKATVFRQPLVEQPEDYTLQVNGRHEYLYGSYPLCQFQYICSCLHSGLTPHLTMVHSSSILAMRDEQSNPAPQVQKPRAKPPPIPAKKPSSVSLWSLEQPFRIELIQGSKVNADERMKLVVQAGLFHGNEMLCKTVSSSEVSVCSEPVWKQRLEFDINICDLPRMARLCFALYAVIEKAKKARSTKKKSKKADCPIAWANLMLFDYKDQLKTGERCLYMWPSVPDEKGELLNPTGTVRSNPNTDSAAALLICLPEVAPHPVYYPALEKILELGRHSECVHVTEEEQLQLREILERRGSGELYEHEKDLVWKLRHEVQEHFPEALARLLLVTKWNKHEDVAQMLYLLCSWPELPVLSALELLDFSFPDCHVGSFAIKSLRKLTDDELFQYLLQLVQVLKYESYLDCELTKFLLDRALANRKIGHFLFWHLRSEMHVPSVALRFGLILEAYCRGSTHHMKVLMKQGEALSKLKALNDFVKLSSQKTPKPQTKELMHLCMRQEAYLEALSHLQSPLDPSTLLAEVCVEQCTFMDSKMKPLWIMYSNEEAGSGGSVGIIFKNGDDLRQDMLTLQMIQLMDVLWKQEGLDLRMTPYGCLPTGDRTGLIEVVLRSDTIANIQLNKSNMAATAAFNKDALLNWLKSKNPGEALDRAIEEFTLSCAGYCVATYVLGIGDRHSDNIMIRESGQLFHIDFGHFLGNFKTKFGINRERVPFILTYDFVHVIQQGKTNNSEKFERFRGYCERAYTILRRHGLLFLHLFALMRAAGLPELSCSKDIQYLKDSLALGKTEEEALKHFRVKFNEALRESWKTKVNWLAHNVSKDNRQ

Variants of: B1
Settings: with p85a_human PIK3R1, P27986
p85a_human PIK3R1, P27986, sequence (P27986 whole entry): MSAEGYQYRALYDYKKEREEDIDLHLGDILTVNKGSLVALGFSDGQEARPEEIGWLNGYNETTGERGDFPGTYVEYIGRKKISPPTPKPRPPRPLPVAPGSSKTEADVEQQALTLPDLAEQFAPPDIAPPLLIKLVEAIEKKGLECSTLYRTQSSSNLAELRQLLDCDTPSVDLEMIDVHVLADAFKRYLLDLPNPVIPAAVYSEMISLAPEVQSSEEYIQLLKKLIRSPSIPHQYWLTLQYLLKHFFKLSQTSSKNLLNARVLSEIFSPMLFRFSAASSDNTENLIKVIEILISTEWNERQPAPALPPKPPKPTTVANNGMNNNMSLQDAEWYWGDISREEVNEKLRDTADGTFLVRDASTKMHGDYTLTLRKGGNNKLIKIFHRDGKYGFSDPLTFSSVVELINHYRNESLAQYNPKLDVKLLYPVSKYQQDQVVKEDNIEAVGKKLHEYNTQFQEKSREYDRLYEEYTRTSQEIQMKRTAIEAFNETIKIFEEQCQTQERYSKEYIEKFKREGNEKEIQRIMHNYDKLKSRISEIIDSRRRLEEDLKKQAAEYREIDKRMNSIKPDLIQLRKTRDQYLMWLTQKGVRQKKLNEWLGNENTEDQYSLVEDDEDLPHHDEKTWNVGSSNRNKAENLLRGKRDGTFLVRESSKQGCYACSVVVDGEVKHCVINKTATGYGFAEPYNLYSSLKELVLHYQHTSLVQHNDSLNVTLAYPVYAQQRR

effect of a mutation on the interaction	Variant
with no effect	Y524S
